Article PMC8419929

Tests used:
[1] = target: rat follicle-stimulating hormone receptor (rFSHR) (rat) (UniProt P20395)
[2] = target: rat lutropin/chorionic gonadotropin receptor (rLH/CGR) (rat) (UniProt P16235)
Chain of UniProt P16235 (P16235 27-700): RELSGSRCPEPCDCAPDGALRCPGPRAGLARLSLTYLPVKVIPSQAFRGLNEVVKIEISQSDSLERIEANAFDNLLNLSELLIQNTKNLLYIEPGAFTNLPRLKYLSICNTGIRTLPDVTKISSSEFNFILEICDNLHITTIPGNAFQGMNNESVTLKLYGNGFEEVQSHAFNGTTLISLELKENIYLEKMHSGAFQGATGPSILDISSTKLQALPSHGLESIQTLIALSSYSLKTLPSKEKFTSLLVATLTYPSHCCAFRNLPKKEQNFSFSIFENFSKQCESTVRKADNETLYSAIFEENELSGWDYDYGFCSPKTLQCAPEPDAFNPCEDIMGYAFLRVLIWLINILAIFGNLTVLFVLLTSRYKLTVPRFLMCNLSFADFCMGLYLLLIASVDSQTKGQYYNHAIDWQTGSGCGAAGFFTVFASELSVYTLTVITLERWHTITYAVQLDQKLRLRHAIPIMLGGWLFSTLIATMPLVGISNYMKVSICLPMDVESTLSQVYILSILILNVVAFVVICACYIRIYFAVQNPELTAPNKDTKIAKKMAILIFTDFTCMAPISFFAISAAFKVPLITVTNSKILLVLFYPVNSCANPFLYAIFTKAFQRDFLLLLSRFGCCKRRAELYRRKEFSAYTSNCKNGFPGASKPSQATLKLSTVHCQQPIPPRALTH

Chain of UniProt P20395 (P20395 18-692): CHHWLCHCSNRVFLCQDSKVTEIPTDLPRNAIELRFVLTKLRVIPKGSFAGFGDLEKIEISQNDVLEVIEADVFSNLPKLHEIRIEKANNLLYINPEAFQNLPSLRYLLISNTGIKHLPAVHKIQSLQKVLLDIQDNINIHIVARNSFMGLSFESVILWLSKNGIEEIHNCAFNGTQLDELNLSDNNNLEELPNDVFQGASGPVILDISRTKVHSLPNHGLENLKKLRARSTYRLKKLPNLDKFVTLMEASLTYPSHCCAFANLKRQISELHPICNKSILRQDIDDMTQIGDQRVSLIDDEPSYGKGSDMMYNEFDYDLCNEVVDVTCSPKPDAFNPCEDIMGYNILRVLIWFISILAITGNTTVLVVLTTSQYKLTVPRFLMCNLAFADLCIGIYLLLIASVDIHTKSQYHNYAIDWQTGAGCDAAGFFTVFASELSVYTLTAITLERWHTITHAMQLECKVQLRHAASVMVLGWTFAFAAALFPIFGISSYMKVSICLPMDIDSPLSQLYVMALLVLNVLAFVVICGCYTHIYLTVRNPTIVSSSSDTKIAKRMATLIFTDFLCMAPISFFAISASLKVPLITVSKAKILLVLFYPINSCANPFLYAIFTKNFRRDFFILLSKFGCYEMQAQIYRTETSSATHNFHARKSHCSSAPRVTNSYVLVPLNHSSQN

EC50 of cAMP production (HTRF cAMP immunoassay) in CHO-K1 cells transiently expressing rFSHR, 30 min at room temperature, mock-transfected cells subtracted [1] [µg/mL] | EC50 of cAMP production (HTRF cAMP immunoassay) in CHO-K1 cells transiently expressing rLH/CGR, 30 min at room temperature, mock-transfected cells subtracted [2] [µg/mL] | Substance
0.112 | 0.0176 | rec-eCGβ/αΔ56 (single-chain eCG, Asn56 of the α-subunit replaced with Gln) (from UniProt P08751 21-169) (ligand)
0.0271 | 0.0046 | recombinant single-chain equine chorionic gonadotropin, rec-eCGβ/α-wt (from UniProt P08751 21-169) (ligand)
0.0949 | 0.334 | rec-eCGβ-D/αΔ56 (single-chain eCG double mutant: CTP of the β-subunit deleted and Asn56 of the α-subunit replaced with Gln) (ligand)
0.0631 | 0.0245 | rec-eCGβ-D/α (single-chain eCG, CTP region of the β-subunit deleted) (ligand)
